Measurements from US20240309103A1.

Key:
[1] = biological target: mNPR1-mFc:hBNP complex (mouse; human) (UniProt P16860); assay: SPR Biacore, mAb captured by anti-human Fc, 37C
[2] = biological target: mNPR1-mFc:hANP complex (mouse; human) (UniProt P01160); assay: SPR Biacore, mAb captured by anti-human Fc, 37C
[3] = biological target: mNPR1-mFc:hBNP complex (mouse; human) (UniProt P16860); assay: SPR Biacore, mAb captured by anti-human Fc, 25C
[4] = biological target: mNPR1-mFc:hANP complex (mouse; human) (UniProt P01160); assay: SPR Biacore, mAb captured by anti-human Fc, 25C
[5] = biological target: mNPR1-mFc:hBNP complex (mouse; human) (UniProt P16860); assay: SPR Biacore, mAb captured by anti-human Fc, 37C; kinetics IC* (inconclusive)
[6] = biological target: mNPR1-mFc:hANP complex (mouse; human) (UniProt P01160); assay: as above
[7] = biological target: human NPR1 on HEK293/hNPR1.myc.DDK cells (0 hANP) (human) (UniProt P16066); assay: cell-based or functional assay
[8] = biological target: human NPR1 on HEK293/hNPR1.myc.DDK cells (no hANP added) (human) (UniProt P16066); assay: cell-based or functional assay
[9] = biological target: human NPR1 on HEK293/hNPR1.myc.DDK cells (0 hANP) (human) (UniProt P16066); assay: ECL cell binding (MSD), 0 hANP

Chain of human NPR1 on HEK293/hNPR1.myc.DDK cells (0 hANP) (human) (P16066 33-1061): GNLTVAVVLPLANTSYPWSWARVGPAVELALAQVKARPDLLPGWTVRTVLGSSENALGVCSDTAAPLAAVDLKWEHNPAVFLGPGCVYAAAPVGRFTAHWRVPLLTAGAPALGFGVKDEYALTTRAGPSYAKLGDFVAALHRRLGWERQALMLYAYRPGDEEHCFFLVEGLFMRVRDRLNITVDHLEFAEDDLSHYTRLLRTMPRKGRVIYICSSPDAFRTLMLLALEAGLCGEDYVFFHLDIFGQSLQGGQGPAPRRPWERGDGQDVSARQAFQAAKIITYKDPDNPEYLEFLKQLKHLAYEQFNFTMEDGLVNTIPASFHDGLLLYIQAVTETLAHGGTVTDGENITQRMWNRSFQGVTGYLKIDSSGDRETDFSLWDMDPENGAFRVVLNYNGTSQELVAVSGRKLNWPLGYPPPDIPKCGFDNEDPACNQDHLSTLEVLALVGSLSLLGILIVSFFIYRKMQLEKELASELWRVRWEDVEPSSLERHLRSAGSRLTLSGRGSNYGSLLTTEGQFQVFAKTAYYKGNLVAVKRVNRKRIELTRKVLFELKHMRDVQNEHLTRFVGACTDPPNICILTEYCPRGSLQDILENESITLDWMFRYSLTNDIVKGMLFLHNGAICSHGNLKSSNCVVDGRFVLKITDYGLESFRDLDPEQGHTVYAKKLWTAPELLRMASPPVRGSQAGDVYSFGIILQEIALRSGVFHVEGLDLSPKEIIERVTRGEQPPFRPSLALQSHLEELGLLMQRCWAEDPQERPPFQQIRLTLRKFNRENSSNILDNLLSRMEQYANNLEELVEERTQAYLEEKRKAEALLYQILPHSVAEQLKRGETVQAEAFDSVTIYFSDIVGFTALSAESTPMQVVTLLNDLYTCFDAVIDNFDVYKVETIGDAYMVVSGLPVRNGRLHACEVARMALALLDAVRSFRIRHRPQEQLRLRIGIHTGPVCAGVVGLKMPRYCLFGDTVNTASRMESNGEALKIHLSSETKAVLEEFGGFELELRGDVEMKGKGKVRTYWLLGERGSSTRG
Chain of human NPR1 on HEK293/hNPR1.myc.DDK cells (no hANP added) (human) (P16066 33-1061): as above

B1: mAb25491 (antibody, human IgG4, V domains shown)
VH: QVQLVQSGAEVMKPGASVKVSCKASGYTFTGYYIHWVRQAPGQGLEWMGWITPNSGATNYAQKFQGRVTLTRDTSISTAYMELTRLKSDDTAVYYCARGGQLEFFYYYYGMDVWGQGTTVTVSS
VL: DIQMTQSPSSLSASAGDRVTITCRASQSIDSYLNWYQQKPGKAPKLLISATSGFQSGVPSRFSGSGSGTDFTLTISSLQPEDFGTYYCQQSYTTPITFGQGTRLEIK
[1]
  100 nM Ag Bound (RU): 4 RU
[2]
  100 nM Ag Bound (RU): 1 RU
[3]
  100 nM Ag Bound (RU): 5 RU
[4]
  100 nM Ag Bound (RU): 1 RU

B2: mAb22805 (antibody, human IgG4, V domains shown)
VH: QVQLVESGGGVVQPGRSLRLSCAASGFTFSTYGMHWVRQAPGKGLEWVALIWNDGSNKYYADSVKGRFTISRDNSKNTLDLQMNSLRAEDTAVYYCARLNTRITGTTNLDYWGQGTLVTVSS
VL: DIQMTQSPSSLSASVGDRVTVSCRASQSIANYLNWYQQKPGKAPNLLIYGAYTLQSGVPSRFRGSGSGTDFTLTISSLQPEDFATYYCQQTYSTPPITFGQGTRLEIK
[5]
  100 nM Ag Bound (RU): 17 RU
[6]
  100 nM Ag Bound (RU): 15 RU
[3]
  100 nM Ag Bound (RU): 21 RU
  Kd: 445 nM
  koff: 0.0682 s⁻¹
  kon: 153000 M⁻¹ s⁻¹
  t½: 10.2 s
[4]
  100 nM Ag Bound (RU): 18 RU
  Kd: 424 nM
  koff: 0.0839 s⁻¹
  kon: 198000 M⁻¹ s⁻¹
  t½: 8.4 s

B3: mAb25508 (antibody, human IgG4, V domains shown)
VH: EVQLVESGGGVVRPGGSLRLSCAASGFNVDDYGMSWVRQIPGKGLEWISGINWNGGRIYYADSMKGRITISRDNAKNSLYLQMNSLRAEDTALYHCVRDQWLVRGLDYWGQGTLVTVSS
VL: DIQMTQSPSSLSASVGDRVTITCRASQGIYNYLAWFQQKPGKAPKSLIYAASSLQSGVPSKFSGSGSGTDFTLTISSLQPEDFATYYCQQYNTYPYTFGQGTKLEIK
[1]
  100 nM Ag Bound (RU): 1 RU
[2]
  100 nM Ag Bound (RU): 0 RU
[3]
  100 nM Ag Bound (RU): 1 RU
[4]
  100 nM Ag Bound (RU): 0 RU

B4: mAb25502 (antibody, human IgG4, V domains shown)
VH: QLQLQESGPGLVKPSETLSLTCTVSGGSISSSSYYWGWIRQPPGKGLEWIGSIYYSGSPYYIPSLKSRVTISVDTSKNQFSLKLSSVTAADTAMYYCARQGRGIARAGPFDYWGQGTLVTVSS
VL: DIQMTQSPSSLSASVGDRVTITCRASQGISNYLAWYQEKPGKVPKLLIYAASTLQSGVPSRFSGSGSGTDFTLTITSLQSEDVATYYCQKYNSAPPWTFGQGTKVEIK
[7]
  % Activation (vs ANP max), Expt 1: 92.9%
  % Activation (vs. ANP max), Expt II: 110%
  EC50 (nM), calcium flux, Expt 1: 161 nM
  EC50 (nM), calcium flux, Expt II: > 200 nM
[8]
  EC50 of Ca2+ flux activation, Expt II: > 200 nM
[1]
  100 nM Ag Bound (RU): 34 RU
  Kd: 342 nM
  koff: 0.0998 s⁻¹
  kon: 291000 M⁻¹ s⁻¹
  t½: 7.2 s
[2]
  100 nM Ag Bound (RU): 35 RU
  Kd: 334 nM
  koff: 0.0883 s⁻¹
  kon: 264000 M⁻¹ s⁻¹
  t½: 7.8 s
[3]
  100 nM Ag Bound (RU): 25 RU
  Kd: 215 nM
  koff: 0.0503 s⁻¹
  kon: 234000 M⁻¹ s⁻¹
  t½: 13.8 s
[4]
  100 nM Ag Bound (RU): 25 RU
  Kd: 337 nM
  koff: 0.0799 s⁻¹
  kon: 237000 M⁻¹ s⁻¹
  t½: 8.4 s
[9]
  Ratio at 3.7 nM Ab concentration of Cell Binding Signal (RLU) to HEK293/hNPR1.myc.DKK relative to parental HEK293: 1

B5: mAb22809 (antibody, human IgG4, V domains shown)
VH: QLQLRESGPGLVKPSETLSLTCTVSGGSINDNSFFWDWIRQTPGRGLEWIGNIFFDGNTYYTPSLKSRVIISVDMSQNQFSLRLTSVTAADTALYYCARHKRSMTAWGFFDYWGQGTLVTVSS
VL: DIQMTQSPSSLSASVGDRVTITCRASKRINTYLNWYQQKPGKAPKVLIYSASNLQSGVPSRFSGSGSGTDFTLTINSLQPEDFATYFCQQSFSAPPITFGQGTRLEIK
[1]
  100 nM Ag Bound (RU): 1 RU
[2]
  100 nM Ag Bound (RU): 1 RU
[3]
  100 nM Ag Bound (RU): 1 RU
[4]
  100 nM Ag Bound (RU): 0 RU

B6: mAb22033 (antibody, human IgG4, V domains shown)
VH: QVQLVQSGAEVKKPGASVTVSCKASGYTFTDYYMHWVRQAPGQGLEWMGWIKPNSGGTNSAQRFQGRITMTWDTSISTAYMELSRLRSDDTAVYYCSRGGPVMNYYYYYGMDVWGQGTTVTVSS
VL: NIQMTQSPSSLSASVGDRVTITCRASQSIDSYLNWYQQKPGKAPKLLIYVASSLQSGVPSRFSGSGSGKDFTLTISSLQPEDFATYYCQQSYSIPTFGQGTRLEIK
[1]
  100 nM Ag Bound (RU): 4 RU
[2]
  100 nM Ag Bound (RU): 2 RU
[3]
  100 nM Ag Bound (RU): 5 RU
[4]
  100 nM Ag Bound (RU): 1 RU

B7: mAb25497 (antibody, human IgG4, V domains shown)
VH: QVQLVQSGAEVKEPGASVKVSCKASGYTFTDYYIHWVRQAPGQGLEWMGWINLNSGGKNHAQKFQGRVTVTSDTSINTAYIELGRLRGDDTAVYYCSRGGGSHYYYYYHGMDVWGQGTTVTVSS
VL: DIQMTQSPSSLSASVGDRITITCRASHSIDSYLNWYQQKPGKAPKLLIYPASTLQSGVPSRFSGSGSGTDFTLTISSLQPEDSAIYYCQQSYSTPLTFGGGTKVEIK
[1]
  100 nM Ag Bound (RU): 2 RU
[2]
  100 nM Ag Bound (RU): 1 RU
[3]
  100 nM Ag Bound (RU): 2 RU
[4]
  100 nM Ag Bound (RU): 1 RU

B8: mAb22035 (antibody, human IgG4, V domains shown)
VH: EVQLVESGGGLVQPGRSLRLSCAASGFTFDDYAMHWVRQAPGKGLEWVSGISWNSGTIGYADSVKGRFTMSRDNAKNSLYLQMNSLRPEDTALYYCAKDMGVSLALWGAFDIWGQGTMVTVSS
VL: DIQMTQSPSSLSASVGDKVTITCRASQNIRTYLNWYQQKPGKAPKVLISTASSLQSGVPSRFSGSGSGTDFTLTISSLQPEDFAVFYCQQSFGIPRTFGQGTKVEIK
[1]
  100 nM Ag Bound (RU): 1 RU
[2]
  100 nM Ag Bound (RU): 1 RU
[3]
  100 nM Ag Bound (RU): 0 RU
[4]
  100 nM Ag Bound (RU): 0 RU
